# Publication PMC2148126
# Read-outs that look alike come from different tables or passages of the source.
# How the values were obtained:
# [1] = biological target: Alf1p-myc (S. cerevisiae) (UniProt P53904); experiment: co-IP
# [2] = biological target: Alf1p-myc (S. cerevisiae) (UniProt P53904); experiment: co-IP; remark: listed apart in the source
# Sequence of UniProt P53904 (P53904 whole entry): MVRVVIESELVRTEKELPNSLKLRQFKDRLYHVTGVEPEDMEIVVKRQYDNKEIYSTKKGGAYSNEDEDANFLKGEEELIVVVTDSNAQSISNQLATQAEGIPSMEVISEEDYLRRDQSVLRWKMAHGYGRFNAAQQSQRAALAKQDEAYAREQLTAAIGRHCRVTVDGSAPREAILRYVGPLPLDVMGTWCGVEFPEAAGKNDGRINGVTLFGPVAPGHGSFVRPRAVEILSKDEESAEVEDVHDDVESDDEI
substance,measurement,setting,value
"α-tubulin, endogenous in yeast extract (from UniProt P09733 1-447) (natural protein)",ratio of α-tubulin to β-tubulin precipitated,[1],20 fold
same,ratio of α-tubulin to β-tubulin precipitated,[2],2 fold
